Literature values in doi:10.1101/2023.08.17.553741.
pKd: −log10 of the molar value.

Biological target: SARS-CoV-2 spike protein (target of cited Kd) (SARS-CoV-2) (UniProt P0DTC2)
Settings: 3' thiol C3, […] (temperature not stated), PBS 1X

TTCCGGTTAATTTATGCTCTACCCGTCCACCTACCGGAATTTTTTTTTTTTTTTTTTTTACGGGTTTGGCGTCGGGCCTGGCGGGGGGATAGTGCGGT [dimeric aptamer (S1-20T-S2-thiolC3)]
pKd: 9.77
